Here are results for two substances from US6617117.

The test system of data set [1] is T1, human GST-SAPK4.
T1 sequence: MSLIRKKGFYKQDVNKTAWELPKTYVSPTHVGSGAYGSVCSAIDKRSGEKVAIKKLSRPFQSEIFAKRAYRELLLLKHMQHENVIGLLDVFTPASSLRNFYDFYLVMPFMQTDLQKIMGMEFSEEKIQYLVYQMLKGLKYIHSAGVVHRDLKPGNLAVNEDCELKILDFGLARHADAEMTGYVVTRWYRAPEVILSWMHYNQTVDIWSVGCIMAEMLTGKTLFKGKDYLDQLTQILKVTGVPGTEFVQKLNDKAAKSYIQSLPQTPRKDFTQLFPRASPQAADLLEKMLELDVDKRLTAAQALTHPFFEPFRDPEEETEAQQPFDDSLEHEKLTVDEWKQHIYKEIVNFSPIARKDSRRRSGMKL

Data set [2] deals with c-myc epitope-tagged SAPK4 (human) (UniProt O15264). The data set can be described thus: cell-based or functional assay.
For data set [3], the target named is SAPK3 (untagged, transfected) (rat) (UniProt Q63538). Kind of data set: cell-based or functional assay.
SAPK3 (untagged, transfected) (rat), sequence (Q63538 whole entry): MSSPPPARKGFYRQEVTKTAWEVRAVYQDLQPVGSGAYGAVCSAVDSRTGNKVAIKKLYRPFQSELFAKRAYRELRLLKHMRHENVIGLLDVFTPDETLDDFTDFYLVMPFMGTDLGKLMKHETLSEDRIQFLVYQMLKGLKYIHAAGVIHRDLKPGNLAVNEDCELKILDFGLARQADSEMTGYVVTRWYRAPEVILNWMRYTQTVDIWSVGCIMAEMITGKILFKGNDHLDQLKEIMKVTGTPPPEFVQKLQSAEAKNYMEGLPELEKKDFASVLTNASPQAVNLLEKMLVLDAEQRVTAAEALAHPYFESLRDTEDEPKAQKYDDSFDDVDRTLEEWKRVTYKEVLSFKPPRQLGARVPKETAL

SKK1 (MKK4): the “phosphorylation and activation of SAPK4 in vitro” value in data set [1] is “SAPK4 is phosphorylated and activated by SKK1 in vitro, but at a much slower rate than SAPK2a under identical conditions”.
Consider “human SKK3 (transfected, pcDNA3.1) (from UniProt P52564 1-334) (enzyme)”, for which the SAPK4 activity (MBP phosphorylation) after co-transfection into COS cells in data set [2] was 12.5 fold. In data set [3], this substance came in with an SAPK3 activity (MBP phosphorylation) after cotransfection into COS cells of 10 fold and an activation of transfected SAPK3 by osmotic shock in cells cotransfected with SKK3 of 30 fold.
